Measured values reported in paper PMC7816212 (Nature, 2020).
No end group written: not given here. *: point of attachment. FITC = O=C1OC2(c3ccc(O)cc3Oc3cc(O)ccc32)c2ccc(NC(=S)*)cc21

B1: N-terminal FITC-labeled BCoR peptide (peptide)
peptide: {FITC}-RSEIISTAPSSWVVPGP
B2: biotinylated Strep II Avi-tagged SIAH1^SBD (domain or fragment)
chain: VANSVLFPCKYASSGCEITLPHTEKADHEELCEFRPYSCPCPGASCKWQGSLDAVMPHLMHQHKSITTLQGEDIVFLATDINLPGAVDWVMMQSCFGFHFMLVLEKQEKYDGHQQFFAIVQLIGTRKQAENFAYRLELNGHRRRLTWEATPRSIHEGIATAIMNSDCLVFDTSIAQLFAENGNLGINVTISMC
modifications: biotin

Tests used:
[1] = target: biotinylated BCL6^5−129 (human, UniProt A5PL18 5-129, biotin); assay: FRET or BRET
[2] = target: BodipyFL-labeled BCL6^5−360 (human, UniProt A5PL18 5-360, BodipyFL label (site not stated)); assay: FRET or BRET

Binder | binding result [1] | Kd [2] [nM]
B1 | binds | 
B2 |  | 200
